The text below walks through data of the DeepSol protein solubility set.

The series is described as follows: soluble on expression in E. coli; label from the status in PepcDB or PDB records.
Consider “MGSDKIHHHHHHMSSTKIIATFNQSGGAAKTTITHNLGYHLAKKHRVLLVDMDPQASLTAFMGLGEVKLQTEQTIYGAIAEETPLYIWEKPIHGMHLVPTNIQLAGTEQKIFHDLTIDNRQRLKFVLSNVLDQYDYILIDCPPSLGILSIMSLVAASHVIIPVETQYKCYLGTNQLLETIARLKKGGHQKLQIACIIPTKYDNRNLQDTGILEEIKQQVEGRIHVTAPIPKSTAFPDATQAHLPLALHKKNHPAVSILEEITKYITQLSVTQGQSH”, for which the “soluble on expression in E. coli” value is given as “not soluble”.

Consider “MVTRITGLASGMDIDDIVSKLMQTERAPLDKLTQKKQTLEWQRDSYREVNSKIKELQDYMSKNTLTYPSTYQSKTVTSSNESVLTATGSVSAPNSSSTVEVASLATAATYKANNYTGYTQGDYNLAFNVVAPGETTAKTVNISVTSADTIDNVISKLNSSDLGVSAFKDKIWNGTEYVETIAFSSKATGAGGSIQAADSATADFMSGQLGFSLDADNKLTAYKEGTNAKVTINGFEMEKLTNNFTVNGVTYSIKNTTAATGPVTTSVSTDVDGIYNQIKEFVDKYNELVDSLNEKLKEEKYRDYTPLTSEQKEAMSDKEVELWEEKAKSGLLRNDSSISTGTNQMRTDFYTQVNADGKTYQLTEFGITTSSAYQLRGHLEINEEKLKAKIAEDPQGVANLFTSGTNDSNYSDKGIMKRITNTLRSTVKSIEAKAGNSTMGASSYSIGKNLNSISTEITDMQDRLNTIENRYYSKFSAMDSAIQKMNEQASYLSQLLVQ”, for which the “soluble on expression in E. coli” value is “not soluble”.

On to “MGSDKIHHHHHHMKFDYEKEPSRDILCIDCKSFYASVECAERGLDPLKTMLVVMSNAENAGGLVLSASPMAKKVLGVSNVTRKNQVPAHPDLYVVPPRMNLYMKKNQEINNLYKKFVADEDHSVFSVDESFLDVTASLSYFHCETAYKMARIIQRVVYNHVGIYVTVGIGDNPLLAKLALDNGAKHSPDFIAEWRYDRVPDTVWQLPSLTDFCGIGRRMAKRLNRLGIDSVYELAQANPHLLQETFGMMGLQLYAHSWGIDRTFLGKKAPHKAEKSFGNSQILPRDYARRDQIELVLKELTEQVAARLRKAHCQTECITVYVGYSKGQIDREGRTGWRKQQTIPATNNTKVLITYVLALFREHYLAGTDVRQLGLSYGKLVWNESLQLDLFSEPEEQISEMELNYLIDKIRQKFGFQALIHTSSLLEGATAIHRSGLVGGHAGGNVGLGG”, for which the “soluble on expression in E. coli” value is “not soluble”.

Regarding “MPEGILPIERDLLRFKEIVRGEVKKRVREFLTREELFGQVEGRLVSIPLPQLEIPKIVHGEPLGEGLGLGGPGEEALGPGGHIPVAELELEEFLDLVGEALRLPRLRPKGEGEVTEEALRHTTIARKGPRGLRHVRRTLKESLKRALQSGEYRPEDPLLVPEREDLRYKAPRRKPIPHAQAVVLFALDVSGSMREEELKLVKTLSFWITLWIKRHFPRLERRYLLHDAEAWEVPEEEFFKAREGGGTRISSALLLAEEILKAYPEAFYNRYLFHFSDGENWQGDTPLALEALRRLLPSLALYGYAQVESPYGQGHFLEEVQEALGGREGVALAAVRGREDLPVALKRLLGG”, the “soluble on expression in E. coli” value is “soluble”.

Regarding “MRKTRNQAGARQALKQLGMRNTSRSAAPRRGCVLSCFFEHLSLYDHSFFPHHSSQMFLFLKDSRFRKKMASQQDASPPTGYNMGHRHSLTIETNPLHLLPSNMRRFSQADTARHPAAPLLSKLAARQQIPEAVAEKKDDEKPENK”, the “soluble on expression in E. coli” value is “not soluble”.

On to “MSELTQLAQQEKKQTYNFNKLQKRLRRNVGNAIADFGMIEDGDKVMVCLSGGKDSYTLLDILLNLQQSAPIKFDIVAVNLDQKQPGFPEHVLPEYLESIGVDYKIVQENTYGIVKEKIPEGKTTCSLCSRLRRGILYRTATELGATKIALGHHRDDMLATLFLNMFYGGKIKSMPPKLISDDGKQIVIRPLAYCKEKDIEKYAIAKEFPIIPCNLCGSQPNLQRQVVKEMLNTWDRQYPGRLETMFSAMQNITLSHMCDPKLFDFKGIKHGQLIDGIEGDTAFDEERITPMQFEDEDQTDFSNKEMINFKEVN”, for which the “soluble on expression in E. coli” value is listed as “not soluble”.

Take “MPSSNSVVPPFDARNLEIKTKSIEQTLIPLVTQITTLVNYKESYMASGKPKSERAMRAALKIGSAVEAAIERFVCVGETIADENADIQPEMYDACTEARLAGASMANLSCACNDDPNSVVDKAVLVRASRQLLSSVTRVLLLADRVLVKQVLRAEDKIAFSLSRLESTRSFNDFVKVFAVFGGEMVELAHRSGDRQHDLKSEKRKAQMSIARTSLERLTMLLLTASKTYLRHPDCDSALQCRDGVFYQMKLSLELIAICVCDGILTTEKSRYIQDEPDMPIDIALQLTANAAIKQLTEMLEMIRMTVRVGAGVRERIVSALDALCQLTQDFTDSAYTPHHQREQILDFLEECRFEMTNLIQPDENEQLAASGLEVTVERLNRRLKDLSKQLQIVAMEQISEVLRANEDQVLLSSMKACAVSGDIDGVEKYMHKFREHADHMQEVCRLLHHISITDALHVHTGHVERNMRALAPLTILAGRTLCVHPSSRIARENLEVFCDTWGQAVNDLSRVAKESDVAANGRVAAEKQAYMSLPRPGVSKSSCRRSVPKHDAASSSSSNELLPNGGRHPKQVGIAPTRVVSQTGDEASSDEEQVDKQEIEAFQYRISLIIDDLQSDVEGGTHGR”: the “soluble on expression in E. coli” value is on record as “not soluble”.

With “VTLNTIALELVPPNLEGGKERAIEDARKVVQYSAASGLDGRIRHVMMPGMIAEDDDRPIPMQPKLDVLDFWSIIKPELAGVHGLCTQVTAFMDEPSLHRRLVDLSDAGMEGIVFVGVPRTMQDGEGSGVAPTDALSLYRQLVANRGVIVIPTRDGEQGRLNFKCSRGATYGMTQLLYSDAIVGFLREFARTTEHRPEILLSFGFVPKVETRIGLINWLIQDPGNAAVADEQAFVQKLAGSEPARRRRLMVDLYKRVLDGVADLGFPLSIHLEATYGVSAAAFETFAEMLAYWSPAEPGKPD”, the “soluble on expression in E. coli” value was “not soluble”.

As to “MFHVKLTLTTMLDTMNSSAHRPVVVADVDTGIDDALAITYLGYLHRRGLIELRITTSAGNCTAEQAAANSAEIMNSLTLSDVPITPGAPKPRALPLTTTPETHGPTGLGYHTTRATIPQLSNAAAAVDLWKGADYLLVAGPATNVAWAAENAPEVLNAIPHVTFMTGAFHYPGNTTPTAEWNAWVDPHALKEALAHYRGHAVRPTICPLNVTESVLLTPQRLKQWCQRSQEPVLPILSDALRFYFEFHESVGVGYMAQIHDLAAAMVLLNRVPHTTRPGFVDVEADAELTRGTTVVDWDSNYGDHPANAQILTALQSEDVFAEFERVVLEY”, the “soluble on expression in E. coli” value was “not soluble”.

Regarding “MSQSYHRPRPAGMAGAILDKQASKFNDVEAGYLLEWIRDLTKEDFDCEASRDNFREQLKDGQRLCKLVNAIKAGSVKKIMKPISNFNCLENINQFSTAARSLGVKDEETFQSVDLFDGRDLFSVTVTLQSLARKVEKLGITPPKQVSKDQIVNQ”, the “soluble on expression in E. coli” value is given as “not soluble”.

With “MGSDKIHHHHHHMSILNVEHLSHGFGDRAIFEDVSFRLLKGEHIGLVGANGEGKSTFMNIITGRLMPDEGKIEWAKKVRVGYLDQHTALEKGMTIGSVLSSAFDFLYDMENEMNDIYARLGDVDEDEMNKLMEEAGTIQDMLTMHDFYMIDAKVEEVARALGLLDLGLDKDVTDLSGGQRTKVLMGKLLLEKPDILLLDEPTNYLDVEHIEWLKRYLNDYENAFILISHDIPFLNSVVNLIYHMDNKKLDRYVGDYDKFMEVYEMKKAQLEAAYNKQQQEIKELKDFVARNKARVATRNMAMSRQKKLDKMDVIELAAEKPKPEFNFKTARTPGRYIFQTNGLVIGYDDPLSSALDLEMERGQKIVLTGANGIGKTTLLKSILGLIKPLSGSVTLGDYLEIGYFEQEMDQSVTTTCIEEIWNEFPAFSQYEVRSALAKCGLTTKHIESQVRVLSGGEQAKVRLCKLINRETNILLLDEPTNHLDVDAKDELKRALKEYKGSILMVCHEPDFYDGLATDVWDCSKWTTRL”, the “soluble on expression in E. coli” value was “not soluble”.

“LSECKTGNGKNYRGTMSKTKNGITCQKWSSTSPHRPRFSPATHPSEGLEENYCRNPDNDPQGPWCYTTDPEKRYDYCDILECEEECMH”: the “soluble on expression in E. coli” value is recorded as “soluble”.

Regarding “QLTAAQELMIQQLVAAQLQCNKRSFSDQPKVTPWPLGADPQSRDARQQRFAHFTELAIISVQEIVDFAKQVPGFLQLGREDQIALLKASTIEIMLLETARRYNHETECITFLKDFTYSKDDFHRAGLQVEFINPIFEFSRAMRRLGLDDAEYALLIAINIFSADRPNVQEPGRVEALQQPYVEALLSYTRIKRPQDQLRFPRMLMKLVSLRTLSSVHSEQVFALRLQDKKLPPLLSEIWDVHE”, the “soluble on expression in E. coli” value is “not soluble”.

Take “MESVTRIKVRYAETDQMGVVHHSVYAVYLEAARVDFLERAGLPYHRVEARGVFFPVVELGLTFRAPARFGEVVEVRTRLAELSSRALLFRYRVEREGVLLAEGFTRHLCQVGERAARIPEDIYRALSVLHLK”: the “soluble on expression in E. coli” value is “soluble”.

Regarding “MAHHHHHHMGISEGFEGIGVYAGSISAFMKPAHEKADATFVTNGDGVLPCEQPGSQAAIQAAQADYMASVAMTGKLPSPPHAGAEAHLHAHMQASHTSSLPRRAPPAALNVTPRNPPMSLAADPKLLSSPTSASAARPAVAAAAAAIGVTARPATSSLSSSPRPQSHIAKGASRVTADGSRIMRNKEATDYYRALPQNELSKEDMWRRINEASADRAEATGTAIGSAEVDYIKLEDELRDFDLFHYRIGEMAYPDQAMRRDYYALWNLAMSLNKARWSMLEVHSQRGMKTTGAGMKLIFWKESVGAVMEKRKMCTGEFTDSHPVLRPFAAAVERNPHMTKAFVRGFTDARLRVIQQPGNVQQLFDHFDKFYGYFFNSLLEVTHIKDEATEHLMTHVGRATGLTNHCVMFWKKYARLGFTMLPADLCADNHVNLGLLKNIPLASRDRAVRKVLFDVMCIVKDEMLHAQKCAKDVPPKAWPIVMECLYANYYLGFLQRRDFNVSAMFADHNIENAGFTWYRLKKRWEWERYQSIERLVDEAAPLPYINTCFTHRGSHYKMASGVGSGAPQAQRKRS”, the “soluble on expression in E. coli” value is “not soluble”.

For “MAHHHHHHMFTLCKGYSEDEDEEEVKDIIDNLKEQKKSFEEKINYYKLKGNIERSHITIYTNLGEFQVELYWYHSPKTCLNFYTLCTMGYYDNTIFHRVIPDYIIQGGDPTGTGKGGKSIYGEYFEDEINTELKHTGAGILSMSNNGPNTNGSQFFITLCPLPHLDGKHTIFARVSKNMTCIENIASVQTTATNKPIFDVKILRTSTAVNVD”, the “soluble on expression in E. coli” value is “soluble”.

On to “MAAATGGLTPEQIIAVDGAHLWHPYSSIGREAVSPVVAVAAHGAWLTLIRDGQPIEVLDAMSSWWTAIHGHGHPALDQALTTQLRVMNHVMFGGLTHEPAARLAKLLVDITPAGLDTVFFSDSGSVSVEVAAKMALQYWRGRGLPGKRRLMTWRGGYHGDTFLAMSICDPHGGMHSLWTDVLAAQVFAPQVPRDYDPAYSAAFEAQLAQHAGELAAVVVEPVVQGAGGMRFHDPRYLHDLRDICRRYEVLLIFDEIATGFGRTGALFAADHAGVSPDIMCVGKALTGGYLSLAATLCTADVAHTISAGAAGALMRGPTFMANPLACAVSVASVELLLGQDWRTRITELAAGLTAGLDTARALPAVTDVRVCGAIGVIECDRPVDLAVATPAALDRGVWLRPFRNLVYAMPPYICTPAEITQITSAMVEVARLVGSLP”, for which the “soluble on expression in E. coli” value is listed as “soluble”.

On to “MYYIASADSQQSQQGRSQAEAPEFLTEKCPFVGLKSTLEQVGTPR”, for which the “soluble on expression in E. coli” value is “not soluble”.
